In patent US6808893:

Assays:
[1] = molecular target: GTRAP4-48 (glutamate transporter 4 associated protein), full-length (rat) (UniProt Q9ES67); assay: cell-based or functional assay
[2] = molecular target: EAAT4, full-length glutamate transporter (rat) (UniProt O35921); assay: cell-based or functional assay
Sequence of EAAT4, full-length glutamate transporter (rat) (O35921 whole entry): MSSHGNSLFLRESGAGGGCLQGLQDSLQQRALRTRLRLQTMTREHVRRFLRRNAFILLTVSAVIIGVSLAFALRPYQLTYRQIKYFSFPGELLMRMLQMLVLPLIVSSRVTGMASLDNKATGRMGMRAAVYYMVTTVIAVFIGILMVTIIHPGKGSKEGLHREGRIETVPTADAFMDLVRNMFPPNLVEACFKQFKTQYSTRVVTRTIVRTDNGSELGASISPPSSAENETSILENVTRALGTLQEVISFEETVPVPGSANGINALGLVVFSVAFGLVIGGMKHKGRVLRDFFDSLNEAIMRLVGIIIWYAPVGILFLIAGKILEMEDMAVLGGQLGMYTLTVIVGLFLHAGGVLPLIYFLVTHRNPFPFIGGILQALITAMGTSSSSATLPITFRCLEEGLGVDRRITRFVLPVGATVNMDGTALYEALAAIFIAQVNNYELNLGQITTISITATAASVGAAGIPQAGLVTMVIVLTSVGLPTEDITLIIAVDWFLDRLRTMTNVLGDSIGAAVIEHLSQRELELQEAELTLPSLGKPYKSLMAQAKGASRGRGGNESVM

Sequence of GTRAP4-48 (glutamate transporter 4 associated protein), full-length (rat) (Q9ES67 whole entry): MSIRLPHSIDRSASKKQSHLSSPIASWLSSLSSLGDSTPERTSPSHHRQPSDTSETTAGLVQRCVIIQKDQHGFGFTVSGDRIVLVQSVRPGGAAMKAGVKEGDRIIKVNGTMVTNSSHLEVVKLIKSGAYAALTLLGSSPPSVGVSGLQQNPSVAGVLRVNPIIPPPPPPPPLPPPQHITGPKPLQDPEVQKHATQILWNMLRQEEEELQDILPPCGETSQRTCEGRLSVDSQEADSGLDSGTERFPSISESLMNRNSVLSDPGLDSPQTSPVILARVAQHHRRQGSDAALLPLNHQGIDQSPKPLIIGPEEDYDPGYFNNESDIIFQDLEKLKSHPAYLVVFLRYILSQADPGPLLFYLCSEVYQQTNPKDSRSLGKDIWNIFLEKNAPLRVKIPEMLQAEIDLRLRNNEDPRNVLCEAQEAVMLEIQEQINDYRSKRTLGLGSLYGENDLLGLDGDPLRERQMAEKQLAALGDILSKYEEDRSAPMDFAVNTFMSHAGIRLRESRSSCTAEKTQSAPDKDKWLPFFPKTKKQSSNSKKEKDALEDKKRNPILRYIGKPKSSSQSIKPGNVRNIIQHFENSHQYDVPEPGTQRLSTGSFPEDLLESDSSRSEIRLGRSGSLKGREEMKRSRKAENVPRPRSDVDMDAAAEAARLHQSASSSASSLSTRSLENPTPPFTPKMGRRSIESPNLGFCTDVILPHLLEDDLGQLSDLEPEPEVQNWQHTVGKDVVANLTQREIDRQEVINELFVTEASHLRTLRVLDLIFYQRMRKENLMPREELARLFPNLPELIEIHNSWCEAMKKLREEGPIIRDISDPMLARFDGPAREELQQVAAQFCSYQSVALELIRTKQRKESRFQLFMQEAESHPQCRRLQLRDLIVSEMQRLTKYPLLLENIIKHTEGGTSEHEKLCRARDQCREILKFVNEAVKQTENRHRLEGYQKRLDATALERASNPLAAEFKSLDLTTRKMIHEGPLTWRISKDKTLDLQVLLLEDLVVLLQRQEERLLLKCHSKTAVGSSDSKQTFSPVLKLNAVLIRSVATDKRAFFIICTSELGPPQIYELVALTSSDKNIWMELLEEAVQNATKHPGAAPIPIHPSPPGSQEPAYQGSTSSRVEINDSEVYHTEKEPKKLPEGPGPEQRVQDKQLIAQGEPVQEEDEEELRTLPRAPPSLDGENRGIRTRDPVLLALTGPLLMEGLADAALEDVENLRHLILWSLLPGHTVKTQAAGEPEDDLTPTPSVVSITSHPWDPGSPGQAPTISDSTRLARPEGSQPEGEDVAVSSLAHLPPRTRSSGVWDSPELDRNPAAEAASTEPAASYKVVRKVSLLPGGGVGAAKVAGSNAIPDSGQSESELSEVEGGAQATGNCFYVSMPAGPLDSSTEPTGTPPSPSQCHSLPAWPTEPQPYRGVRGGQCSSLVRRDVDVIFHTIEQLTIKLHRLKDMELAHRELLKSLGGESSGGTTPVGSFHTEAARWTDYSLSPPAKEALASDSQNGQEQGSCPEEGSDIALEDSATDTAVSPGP

Substance | GTRAP4-48 mediated increase of EAAT4 uptake activity in HEK-rEAAT4 cells [1] | Km of Na+-dependent L-[3H]-glutamate uptake with GTRAP41 [2] | Na+-dependent glutamate transport in HEK-rEAAT4 cells [2] | Vmax of Na+-dependent L-[3H]-glutamate uptake with GTRAP41 [2]
myc-tagged construct encoding the last 77 amino acids of EAAT4 (from UniProt O35921 485-561) | 25% | – | – | –
GTRAP4-41 (glutamate transporter 4 associated protein), full-length, Q9QWN8 2-2388 | – | 11 µM | 2 fold | 605 pmol/mg/min
